Assay results published in patent publication US20250121104A1 (FUSION PHARMACEUTICALS, published 2025).

T1: Semaphorin 3a (UniProt Q14563 21-771, limits assumed)
T1 sequence (looked up): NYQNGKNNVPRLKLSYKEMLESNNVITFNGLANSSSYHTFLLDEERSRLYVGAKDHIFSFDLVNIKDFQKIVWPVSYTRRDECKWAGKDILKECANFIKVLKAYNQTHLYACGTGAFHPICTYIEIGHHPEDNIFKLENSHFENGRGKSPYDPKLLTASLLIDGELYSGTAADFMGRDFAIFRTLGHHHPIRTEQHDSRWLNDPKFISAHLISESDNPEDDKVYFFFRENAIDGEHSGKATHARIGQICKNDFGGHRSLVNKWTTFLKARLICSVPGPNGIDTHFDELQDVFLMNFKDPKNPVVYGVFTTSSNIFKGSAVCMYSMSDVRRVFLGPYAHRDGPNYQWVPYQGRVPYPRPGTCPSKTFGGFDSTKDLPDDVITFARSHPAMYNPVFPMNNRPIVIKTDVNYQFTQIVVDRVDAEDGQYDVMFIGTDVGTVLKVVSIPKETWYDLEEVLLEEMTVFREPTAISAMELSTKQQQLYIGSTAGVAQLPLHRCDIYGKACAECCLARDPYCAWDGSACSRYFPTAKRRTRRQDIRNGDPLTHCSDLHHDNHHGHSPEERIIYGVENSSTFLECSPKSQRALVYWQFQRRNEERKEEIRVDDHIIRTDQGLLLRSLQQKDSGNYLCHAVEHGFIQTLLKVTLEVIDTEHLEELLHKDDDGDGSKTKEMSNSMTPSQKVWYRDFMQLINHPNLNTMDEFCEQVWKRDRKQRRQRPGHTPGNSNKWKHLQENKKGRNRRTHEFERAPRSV

T2: Ron (CD136) (UniProt Q04912 25-957, limits assumed)
T2 sequence (looked up): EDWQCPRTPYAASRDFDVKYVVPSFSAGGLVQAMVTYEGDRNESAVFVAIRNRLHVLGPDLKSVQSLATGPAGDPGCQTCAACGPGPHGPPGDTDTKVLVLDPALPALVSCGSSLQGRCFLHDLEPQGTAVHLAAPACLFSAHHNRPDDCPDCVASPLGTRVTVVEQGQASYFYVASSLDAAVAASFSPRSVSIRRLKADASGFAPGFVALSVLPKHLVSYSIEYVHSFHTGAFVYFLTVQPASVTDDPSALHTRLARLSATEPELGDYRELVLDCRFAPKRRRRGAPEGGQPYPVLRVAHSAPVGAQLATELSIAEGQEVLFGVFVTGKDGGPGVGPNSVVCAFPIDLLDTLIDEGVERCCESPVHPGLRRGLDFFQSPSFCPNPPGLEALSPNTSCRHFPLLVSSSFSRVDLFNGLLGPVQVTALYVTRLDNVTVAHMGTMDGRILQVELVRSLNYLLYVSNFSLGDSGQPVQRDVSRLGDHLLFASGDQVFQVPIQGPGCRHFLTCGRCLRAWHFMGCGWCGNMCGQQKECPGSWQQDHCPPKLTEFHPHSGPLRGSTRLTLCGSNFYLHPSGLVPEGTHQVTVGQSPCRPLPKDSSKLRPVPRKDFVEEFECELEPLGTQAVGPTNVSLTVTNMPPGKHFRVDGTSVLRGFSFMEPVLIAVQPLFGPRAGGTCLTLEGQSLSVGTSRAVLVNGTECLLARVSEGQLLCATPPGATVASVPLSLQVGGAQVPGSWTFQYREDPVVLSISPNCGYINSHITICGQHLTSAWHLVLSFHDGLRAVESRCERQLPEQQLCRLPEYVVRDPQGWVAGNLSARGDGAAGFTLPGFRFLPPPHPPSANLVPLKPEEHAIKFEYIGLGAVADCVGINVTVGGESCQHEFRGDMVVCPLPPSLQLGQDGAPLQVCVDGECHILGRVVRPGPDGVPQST


What was measured:
[1] = target: c-MET receptor on the cell surface (H1975 cells) (UniProt P08581); test: cell-based or functional assay
Chain of c-MET receptor on the cell surface (H1975 cells) (P08581 25-1390): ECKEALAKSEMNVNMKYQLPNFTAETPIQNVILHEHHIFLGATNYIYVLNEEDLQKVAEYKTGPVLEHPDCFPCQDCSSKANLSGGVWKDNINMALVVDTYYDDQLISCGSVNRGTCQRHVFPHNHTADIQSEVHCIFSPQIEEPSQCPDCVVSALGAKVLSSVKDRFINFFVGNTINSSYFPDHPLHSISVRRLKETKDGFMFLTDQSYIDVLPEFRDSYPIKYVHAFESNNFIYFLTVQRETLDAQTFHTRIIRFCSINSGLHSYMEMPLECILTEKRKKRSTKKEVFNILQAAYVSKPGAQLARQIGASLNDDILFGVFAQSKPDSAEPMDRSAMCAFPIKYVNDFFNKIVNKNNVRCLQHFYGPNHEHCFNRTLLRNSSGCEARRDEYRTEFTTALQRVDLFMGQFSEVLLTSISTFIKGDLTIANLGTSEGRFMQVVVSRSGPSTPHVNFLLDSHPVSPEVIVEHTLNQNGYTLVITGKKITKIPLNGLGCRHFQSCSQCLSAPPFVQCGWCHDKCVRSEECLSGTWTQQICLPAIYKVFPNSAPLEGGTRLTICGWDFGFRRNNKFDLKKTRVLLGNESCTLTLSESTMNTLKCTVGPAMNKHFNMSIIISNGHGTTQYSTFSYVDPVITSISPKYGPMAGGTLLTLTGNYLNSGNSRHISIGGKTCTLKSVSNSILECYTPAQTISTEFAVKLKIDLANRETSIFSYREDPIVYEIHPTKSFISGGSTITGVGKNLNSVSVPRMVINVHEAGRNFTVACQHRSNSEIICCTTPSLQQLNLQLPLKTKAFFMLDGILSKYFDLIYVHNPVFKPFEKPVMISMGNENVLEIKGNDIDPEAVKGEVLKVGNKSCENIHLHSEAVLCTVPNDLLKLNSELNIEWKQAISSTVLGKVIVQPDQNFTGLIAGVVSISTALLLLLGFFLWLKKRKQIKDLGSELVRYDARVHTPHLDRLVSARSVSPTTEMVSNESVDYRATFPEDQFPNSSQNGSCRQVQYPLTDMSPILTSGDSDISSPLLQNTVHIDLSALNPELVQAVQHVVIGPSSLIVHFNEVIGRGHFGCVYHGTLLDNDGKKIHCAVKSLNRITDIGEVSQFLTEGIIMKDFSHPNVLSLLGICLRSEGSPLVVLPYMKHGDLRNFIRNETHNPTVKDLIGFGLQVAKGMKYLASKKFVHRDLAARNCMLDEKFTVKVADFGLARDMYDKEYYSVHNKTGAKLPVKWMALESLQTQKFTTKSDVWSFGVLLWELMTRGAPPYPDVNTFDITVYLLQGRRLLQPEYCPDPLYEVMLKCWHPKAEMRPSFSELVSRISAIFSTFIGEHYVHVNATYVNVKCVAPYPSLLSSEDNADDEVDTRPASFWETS

[2] = target: T3, cynomolgus monkey cMET (recombinant, soluble monomeric) (cynomolgus monkey, UniProt A0M8R7 25-932 (Papio anubis entry)); test: SPR (BIAcore T200), antibody captured on anti-human IgG, soluble monomeric antigen as analyte, 25 C, 1:1 fit
T3 construct: also called cyno cMET
T3 sequence (A0M8R7 25-932 S170N/I621T): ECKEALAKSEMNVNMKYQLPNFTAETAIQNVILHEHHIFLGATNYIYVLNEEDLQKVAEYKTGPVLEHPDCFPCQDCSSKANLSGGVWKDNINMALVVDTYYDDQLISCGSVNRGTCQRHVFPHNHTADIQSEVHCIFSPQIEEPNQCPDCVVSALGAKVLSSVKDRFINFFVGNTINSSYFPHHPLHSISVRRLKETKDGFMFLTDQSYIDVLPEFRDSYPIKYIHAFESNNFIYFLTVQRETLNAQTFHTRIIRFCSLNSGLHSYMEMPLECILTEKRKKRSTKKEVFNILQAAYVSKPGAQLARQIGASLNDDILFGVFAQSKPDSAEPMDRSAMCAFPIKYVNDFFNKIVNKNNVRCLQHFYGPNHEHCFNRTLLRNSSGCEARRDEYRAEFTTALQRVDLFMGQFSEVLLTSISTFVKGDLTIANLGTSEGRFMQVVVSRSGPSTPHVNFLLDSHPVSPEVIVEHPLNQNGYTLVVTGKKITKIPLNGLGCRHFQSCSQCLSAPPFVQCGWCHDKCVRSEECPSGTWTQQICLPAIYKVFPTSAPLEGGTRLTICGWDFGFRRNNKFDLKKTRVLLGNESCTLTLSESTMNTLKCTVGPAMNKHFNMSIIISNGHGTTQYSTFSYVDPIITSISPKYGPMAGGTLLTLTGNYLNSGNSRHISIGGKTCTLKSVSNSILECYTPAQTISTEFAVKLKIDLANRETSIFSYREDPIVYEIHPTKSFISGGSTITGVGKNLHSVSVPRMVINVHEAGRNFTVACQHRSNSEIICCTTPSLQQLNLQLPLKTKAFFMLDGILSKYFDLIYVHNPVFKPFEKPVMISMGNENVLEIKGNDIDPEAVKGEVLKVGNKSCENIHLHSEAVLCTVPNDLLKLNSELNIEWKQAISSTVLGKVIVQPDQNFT
Method: (§1) Mouse anti-human IgG was immobilized on a CM4 sensor chip with a final surface density of ˜2000 resonance units (RUs). A reference flow cell surface was also prepared on this sensor chip using identical immobilization protocol. Test and control article antibodies were prepared at 5-20 nM in instrument buffer (HBS-EP buffer; 0.01M HEPES, pH 7.4, 0.15M NaCl, 3 mM EDTA, and 0.005% P-20), along with 3-fold serial dilutions of purified EGFR (0.27-200 nM human, 0.4-900 nM cyno, and 4-1000 nM murine) or cMET proteins (0.27-66 nM human and 0.27-22 nM cyno) in instrument buffer. A sequential approach was utilized for kinetic measurements. Antibodies were first injected over the capture surface, at a flow rate of 10 μL/minute. Once the binding of the captured antibody stabilized, a single concentration of the analyte was injected over both capture and reference surfaces, at a flow rate of 75 μL/minute. The resulting binding response curves yielded the association phase data. Following the injection of analyte, the flow was then switched back to instrument buffer for 15 minutes to permit the collection of dissociation phase data, followed by a 1-minute pulse of 10 mM glycine, pH 1.5, to regenerate the antibody-captured surface on the chip. Binding responses against test and control article antibodies were recorded from duplicate injections of each concentration of analyte. In addition, several buffer injections were interspersed throughout the injection series. Select buffer injections were used along with the reference cell responses to correct the raw data sets for injection artifacts and/or nonspecific binding interactions, commonly referred to as “double referencing”. Corrected binding data were globally fit to a 1:1 binding model (Biacore T200 Evaluation software 2.0, GE Healthcare, Pittsburgh, PA).
(§2) Kinetic measurements to soluble monomeric forms of EGFR and cMET were performed using a BIACore instrument.

[3] = target: T4, human EGFR (recombinant, soluble monomeric) (human, UniProt P00533 25-645); test: as above
T4 construct: also called EGFR antigen
Method: as §1, §2

mouse EGFR (recombinant) = target: T5, mouse EGFR (recombinant) (mouse, UniProt Q01279 25-647); test: as above
T5 construct: also called murine EGFR
Method: as §1, §2

[4] = target: T6, human cMET (recombinant, soluble monomeric) (human, UniProt P08581 25-932); test: as above
T6 construct: also called cMET antigen; His-tagged cMET antigen
T6 sequence (P08581 25-932): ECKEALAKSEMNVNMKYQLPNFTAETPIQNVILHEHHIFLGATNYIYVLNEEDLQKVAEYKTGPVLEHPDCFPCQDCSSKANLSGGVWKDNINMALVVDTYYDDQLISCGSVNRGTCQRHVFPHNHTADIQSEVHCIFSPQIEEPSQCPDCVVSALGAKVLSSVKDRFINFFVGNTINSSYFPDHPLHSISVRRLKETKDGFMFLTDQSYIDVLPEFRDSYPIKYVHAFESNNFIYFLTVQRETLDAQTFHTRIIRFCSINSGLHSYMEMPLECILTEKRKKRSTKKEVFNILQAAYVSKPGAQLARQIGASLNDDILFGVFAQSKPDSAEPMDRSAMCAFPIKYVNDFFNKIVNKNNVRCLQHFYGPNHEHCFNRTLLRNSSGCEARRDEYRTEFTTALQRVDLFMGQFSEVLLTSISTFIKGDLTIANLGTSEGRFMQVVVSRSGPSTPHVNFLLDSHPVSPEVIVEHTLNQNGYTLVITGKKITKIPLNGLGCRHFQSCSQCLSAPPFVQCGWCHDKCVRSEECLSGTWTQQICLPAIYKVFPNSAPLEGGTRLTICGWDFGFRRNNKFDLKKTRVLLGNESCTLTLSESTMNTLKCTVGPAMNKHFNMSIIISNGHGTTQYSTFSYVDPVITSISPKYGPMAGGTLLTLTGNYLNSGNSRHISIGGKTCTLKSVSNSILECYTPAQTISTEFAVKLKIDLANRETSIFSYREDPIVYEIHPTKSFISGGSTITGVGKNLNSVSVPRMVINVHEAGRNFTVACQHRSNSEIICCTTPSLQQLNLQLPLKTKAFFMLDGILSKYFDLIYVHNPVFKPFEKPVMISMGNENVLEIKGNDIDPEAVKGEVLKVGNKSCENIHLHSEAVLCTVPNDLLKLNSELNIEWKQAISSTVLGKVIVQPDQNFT
Method: as §1, §2

[5] = target: T7, cynomolgus monkey EGFR (recombinant, soluble monomeric) (cynomolgus monkey, UniProt P55245 25-645 (rhesus entry)); test: as above
T7 construct: also called cyno EGFR
Method: as §1, §2

Semaphorin 3a = target: T1, Semaphorin 3a; test: ELISA, antigen coated at 1 µg/mL, antibody titrated from 10 µg/mL
Method: (§3) Specificity for EGFR and cMET species paralogs and closely related family members was determined by ELISA. Briefly, antigen solutions were prepared in PBS at 1 μg/mL and 50 microliters was coated onto half area ELISA assay plates. Plates were washed and blocked with 1% BSA in PBS containing 0.005% Tween-20 (PBS-T) for one hour at room temperature. […] Wells were incubated with 50 microliters of the indicated primary antibodies diluted in PBS-T in a 1:3 dilution series, starting at 10 μg/mL and ending at 0.002 μg/mL, except for the HER4 binding mAb control, MAB1131, for which the series started at 1 μg/mL. The wells were washed 4 times in PBS-T, then 50 μl of goat anti-human Fab HRP-labeled secondary antibody, diluted 1:5000 in PBS-T, was added to each well and incubated for one hour at room temperature. […] 50 microliters of TMB stop solution was added to all wells and the absorbance was read at 450 nm on a SpectraMax M5 microplate reader. Data were analyzed in the SoftMax Pro 5 software and plotted using GraphPad Prism 7 graphing software.
(§4) To determine the species cross reactivity, ELISA assays were carried out as described above.

mouse cMET (recombinant) = mouse cMET (recombinant) (mouse, UniProt P16056 25-929, limits assumed); test: as above
Chain of mouse cMET (recombinant) (P16056 25-929 limits assumed): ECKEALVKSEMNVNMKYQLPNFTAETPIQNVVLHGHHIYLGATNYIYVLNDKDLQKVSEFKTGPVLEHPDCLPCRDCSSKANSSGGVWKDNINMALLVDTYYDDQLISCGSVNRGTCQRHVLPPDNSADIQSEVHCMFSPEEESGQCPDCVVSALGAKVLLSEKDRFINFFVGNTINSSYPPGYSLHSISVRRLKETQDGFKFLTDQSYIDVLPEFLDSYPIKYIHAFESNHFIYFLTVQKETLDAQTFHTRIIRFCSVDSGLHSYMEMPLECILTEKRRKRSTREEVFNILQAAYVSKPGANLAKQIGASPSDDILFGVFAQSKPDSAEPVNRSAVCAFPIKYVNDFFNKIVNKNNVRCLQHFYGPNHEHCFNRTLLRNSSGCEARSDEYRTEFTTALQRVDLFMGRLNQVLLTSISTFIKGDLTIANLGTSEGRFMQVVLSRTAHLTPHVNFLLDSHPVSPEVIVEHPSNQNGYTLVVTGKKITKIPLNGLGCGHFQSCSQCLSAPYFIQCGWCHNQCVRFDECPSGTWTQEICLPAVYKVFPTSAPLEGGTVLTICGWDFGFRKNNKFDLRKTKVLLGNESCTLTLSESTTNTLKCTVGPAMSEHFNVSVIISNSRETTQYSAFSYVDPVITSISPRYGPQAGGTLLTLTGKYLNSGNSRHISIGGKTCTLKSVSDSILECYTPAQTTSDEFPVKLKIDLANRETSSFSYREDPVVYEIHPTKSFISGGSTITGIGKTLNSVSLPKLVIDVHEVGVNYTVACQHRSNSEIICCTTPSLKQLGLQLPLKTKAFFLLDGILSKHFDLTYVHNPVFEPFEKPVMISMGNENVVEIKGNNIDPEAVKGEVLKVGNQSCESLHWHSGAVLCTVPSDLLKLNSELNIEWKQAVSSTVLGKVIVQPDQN
Method: as §3, §4

Ron (CD136) = target: T2, Ron (CD136); test: as above
Method: as §3, §4

Binder | cytoplasmic intensity (AlexaFluor647, confocal microscopy, H1975 cells): fold higher for RAA22/B09 DuetMab than for B09-IgG [1] [fold] | Kd [2] [nM] | koff [2] [s⁻¹] | kon [2] [M⁻¹ s⁻¹] | Kd [3] [nM] | koff [3] [s⁻¹] | kon [3] [M⁻¹ s⁻¹] | Kd (mouse EGFR (recombinant)) [nM] | koff (mouse EGFR (recombinant)) [s⁻¹] | kon (mouse EGFR (recombinant)) [M⁻¹ s⁻¹] | Kd [4] [nM] | koff [4] [s⁻¹] | kon [4] [M⁻¹ s⁻¹] | Kd [5] [nM] | koff [5] [s⁻¹] | kon [5] [M⁻¹ s⁻¹] | binding result (Semaphorin 3a) | binding result (mouse cMET (recombinant)) | binding result (Ron (CD136))
B09/IgG single-arm control antibody (bispecific antibody, part only; not given: non-binding control arm, V domains shown, part only) VH: QVQLVQSGAEVKKPGASVKVSCKASGYTFTDYYIHWVRQATGQGLEWMGWMNPNSGNTGYAQKFQGRVTMTRDTSISTAYMELSSLRSEDTAVYYCARGQGYTHSWGQGTMVTVSS VL: DIQMTQSPSTLSASVGDRVTITCRASEGIYHWLAWYQQKPGKAPKLLIYKASSLASGVPSRFSGSGSGTEFTLTISSLQPDDFATYYCQQYSNYPPTFGGGTKLEIK | 4.7 | – | – | – | – | – | – | – | – | – | – | – | – | – | – | – | – | – | –
QD6/B09-57 DuetMab (bispecific antibody, V domains shown, also called QD6/B09 DuetMab; QD6/B09-AlexaFluor647) VH 1: QVQLVQSGAEVKKPGSSVKVSCKASGGTFSDNDFSWVRQAPGQGLEWMGAIVAVVRTETYAQKFQDRVKITADISTRTTYMELSSLRSEDTAVYYCARRLMSAISGPGAPLLMWGQGTLVTVSS VL 1: QSALTQPRSVSGSPGQSVTISCTGTSSDVGGYNYVSWYQQHPGKAPKLMIYDVSERPSGVPDRFSGSKSGNTASLTISGLQAEDEADYYCFSYTSSDTLEIFGGGTKLTVL VH 2: QVQLVQSGAEVKKPGASVKVSCKASGYTFTDYYIHWVRQATGQGLEWMGWMNPNSGNTGYAQKFQGRVTMTRDTSISTAYMELSSLRSEDTAVYYCARGQGYTHSWGQGTMVTVSS VL 2: DIQMTQSPSTLSASVGDRVTITCRASEGIYHWLAWYQQKPGKAPKLLIYKASSLASGVPSRFSGSGSGTEFTLTISSLQPDDFATYYCQQYSNYPPTFGGGTKLEIK | – | 2.2 | 0.00206 | 958000 | 5.9 | 0.000374 | 63500 | 6.2 | 0.00078 | 126000 | 1.6 | 0.000696 | 425000 | 2.8 | 0.000585 | 210000 | no binding (tested: 10 µg/mL) | no binding (tested: 10 µg/mL) | no binding (tested: 10 µg/mL)
QD6 IgG (antibody, V domains shown, also called anti-EGFR antibody clone QD6) VH: QVQLVQSGAEVKKPGSSVKVSCKASGGTFSDNDFSWVRQAPGQGLEWMGAIVAVVRTETYAQKFQDRVKITADISTRTTYMELSSLRSEDTAVYYCARRLMSAISGPGAPLLMWGQGTLVTVSS VL: QSALTQPRSVSGSPGQSVTISCTGTSSDVGGYNYVSWYQQHPGKAPKLMIYDVSERPSGVPDRFSGSKSGNTASLTISGLQAEDEADYYCFSYTSSDTLEIFGGGTKLTVL | – | – | – | – | – | – | – | – | – | – | – | – | – | – | – | – | no binding (tested: 10 µg/mL) | no binding (tested: 10 µg/mL) | no binding (tested: 10 µg/mL)
